Several values for one entry are separate records, joined by “and”; a condition that tells them apart may be missing. Identical values can stand only once. ± gives the standard deviation of the averaged measurements.
Experiments:
[1] = tested on: Saccharomyces cerevisiae; assay: protein stability index of tFT-peptide fusion in wild type (PSI (0-1 scale)); higher = more stable (slower turnover); details: genetic background: wild type
Protocol: (§1)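 MPS profiling in S. cerevisiae of two library types built from selected 12-aa C-degron peptides (IN1, IN2, LN1, LN3, VN2, R1-R5, W1-W3, Atg1 and Rpa12 C-termini): saturation mutagenesis libraries and C-terminal +1 capping libraries (13 aa). Each peptide is fused to the C-terminus of a sfGFP-mCherry timer, after a GGGS linker. Cells are FACS-sorted into 8 mCherry/sfGFP bins and sequenced. PSI runs from 0 (unstable) to 1 (stable), measured once in wild type and in the das1Δ or doa10Δ background.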

[2] = tested on: Saccharomyces cerevisiae; assay: protein stability index of tFT-peptide fusion in deletion strain of DOA10 (PSI (0-1 scale)); higher = more stable (slower turnover)
Protocol: as §1

[3] = tested on: Saccharomyces cerevisiae; assay: protein stability index of tFT-peptide fusion in deletion strain of DAS1 (PSI (0-1 scale)); higher = more stable (slower turnover)
Protocol: as §1

[4] = tested on: Saccharomyces cerevisiae; assay: protein stability index of tFT-peptide fusion (C-terminal peptide) (PSI (0-1 scale)); higher = more stable (slower turnover)
Protocol: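 MPS profiling in S. cerevisiae of the tFT-X12 degron library: putative degron peptides plus stable controls, 12 aa, fused to the C-terminus of a sfGFP-mCherry timer. Cells are FACS-sorted into 8 mCherry/sfGFP bins and deep-sequenced. PSI runs from 0 (unstable) to 1 (stable). Backgrounds are wild type, das1Δ and doa10Δ at 30 °C, and wild type, das1Δ, cdc34-1 and cdc53-1 at 37 °C; 2-3 technical replicates each.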

[5] = tested on: Saccharomyces cerevisiae; assay: as above; details: genetic background: wild type; temperature: 30 C
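Wherever protein stability index of tFT-peptide fusion (C-terminal peptide) is given: PSI is a weighted mean of sequencing reads over stability bins, variants kept only with over 10 reads, mCherry proximal and sfGFP distal, peptide attached via GGGS linker.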
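Wherever protein stability index of tFT-peptide fusion in deletion strain of DAS1 is given: PSI is a weighted mean of each variant's read distribution over the sorted stability bins, computed only for variants having over 10 reads in total.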
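Wherever protein stability index of tFT-peptide fusion in deletion strain of DOA10 is given: PSI per variant is the weighted mean of its sequencing read distribution over the sorted stability bins, counting only variants with over 10 reads summed across bins.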
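Wherever protein stability index of tFT-peptide fusion in wild type is given: PSI derived as read-weighted mean over the 8 sorting bins, only variants exceeding 10 total reads kept, mCherry placed adjacent to the peptide and sfGFP distal.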

Sequence	protein stability index [1]	protein stability index [3]	other results
RYLRVLLPLYFR	0.335		protein stability index [2]: 0.659
CSLRVLLPLYFR	0.0975		protein stability index [2]: 0.622
RSLRVLLPLTFR	0.379		protein stability index [2]: 0.671
GLPMCSVGCWFR	0.267		protein stability index [2]: 0.699
GLYMCSVICWFR	0.231		protein stability index [2]: 0.314
RSSRVLLPLYFR	0.346		protein stability index [2]: 0.699
RVTRLDAIYVRI	0.469		protein stability index [2]: 0.635
QLVSLPILLFFR	0.0846		protein stability index [2]: 0.647
SITLPMCPLLLR	0.248		protein stability index [2]: 0.65
CLVSLPILLFCR	0.0631		protein stability index [2]: 0.25
RVCRLDAIYFRI	0.403		protein stability index [2]: 0.638
RSLRVQLPLYFR	0.136		protein stability index [2]: 0.685
RSLRVSLPLYFR	0.15		protein stability index [2]: 0.687
RSLRVLLHLYFR	0.254		protein stability index [2]: 0.605
RVTRLQAIYFRI	0.202		protein stability index [2]: 0.402
GAYMCSVGCWFR	0.427		protein stability index [2]: 0.686
AIVLPMCPLLLR	0.229		protein stability index [2]: 0.623
CLVSLPILPFFR	0.0842		protein stability index [2]: 0.679
CLVSFPILLFFR	0.0594		protein stability index [2]: 0.583
AITLPMCVLLLR	0.0936		protein stability index [2]: 0.608
SSLRVLLPLYFR	0.252		protein stability index [2]: 0.679
GLYMCSVGCFFR	0.408		protein stability index [2]: 0.632

Sequence	protein stability index [1]	protein stability index [3]	other results
CLTSLPILLFFR	0.0745		protein stability index [2]: 0.636
AITLPYCPLLLR	0.18		protein stability index [2]: 0.666
ANTLPMCPLLLR	0.442		protein stability index [2]: 0.649
RVTRLDNIYFRI	0.484		protein stability index [2]: 0.702
CLVSLPIMLFFR	0.0325		protein stability index [2]: 0.607
AITLQMCPLLLR	0.3		protein stability index [2]: 0.619
LKILRQKMNLQN	0.221	0.666	
VRGAVTGWRLVG	0.157	0.684	
LWILRQKMNHQN	0.124	0.695	
KKHKKGQKIKIN	0.294	0.576	
PSLAASFWRVVGF	0.692	0.693	
EVVYLSCVACIN	0.0159	0.0291	
RIIQPLPVQFLN	0.0603	0.598	
LSMRWTFRYWVN	0.0756	0.531	
LKSLRQKMNHQN	0.202	0.681	
FSNRWTFRYWVN	0.0838	0.617	
KKHKKGQLQKIN	0.121	0.628	
RLIQPLPVQFLND	0.652	0.671	
KKHKKGQNQKIN	0.191	0.625	
RLIQPLPVQHLN	0.1	0.564	
VRGAVGGWRLTG	0.269	0.659	
ELIQPLPVQFLN	0.0675	0.612	

Sequence	protein stability index [1]	protein stability index [3]	other results
CTSCGYKFRGNN	0.682	0.686	
IVVYLSCVACIN	0.0176	0.0302	
GKHKKGQKQKIN	0.133	0.585	
VRGAVGIWRLVG	0.156	0.681	
PDKRNHLRKLLN	0.205	0.574	
VRGAVGGMRLVG	0.592	0.677	
CTSCGYKFRKNN	0.23	0.692	
RLIQPLPVQFLS	0.156	0.606	
ARWRVGLTRGAS	0.664	0.679	
RLIQWLPVQFLN	0.071	0.613	
PDKRNFLIKLLN	0.112	0.61	
LVVYLSIVACIN	0.0584	0.0849	
ADWRVGLWRGAS	0.519	0.729	
KKHKKGQKQKAN	0.308	0.709	
PSLAAAFWRVVG	0.142	0.702	
ARWRVGLWVGAS	0.468	0.545	
PDKRNHLEKLLN	0.292	0.63	
FDKRNHLIKLLN	0.131	0.589	
VRGAVGGWRLVGQ	0.701	0.667	
FSMRWTFRYYVN	0.0506	0.482	
FSIRWTFRYWVN	0.0207	0.335	
VRGAVMGWRLVG	0.154	0.71	

Sequence	protein stability index [1]	protein stability index [3]	other results
VRGAKGGWRLVG	0.28	0.67	
PSLAASFWRVNG	0.167	0.702	
LVVHLSCVACIN	0.0147	0.0251	
ARWRVGLWGGAS	0.554	0.674	
ARWRLGLWRGAS	0.458	0.687	
LKILRQKMYHQN	0.249	0.658	
FSMRWTFRFWVN	0.052	0.419	
CTSCGYKFRTRN	0.534	0.683	
VRGAVGGWRFVG	0.142	0.674	
FSMRWTFRYWVC	0.0396	0.403	
CTSCGYKFRTNNY	0.677	0.704	
RLIQPLPVAFLN	0.0928	0.552	
VSLAASFWRVVG	0.102	0.676	
CTSVGYKFRTNN	0.176	0.682	
PSLAASFWRVVGQ	0.649	0.705	
KKHKKGQKQKIN	0.113 and 0.11	0.66 and 0.611	protein stability index ([4]; genetic background: cdc34-1, temperature: 37 C): 0.535 ± 0.036; protein stability index ([4]; genetic background: cdc53-1, temperature: 37 C): 0.694 ± 0.011; protein stability index ([4]; genetic background: das1 deletion, temperature: 30 C): 0.622 ± 0.04; protein stability index ([4]; genetic background: das1 deletion, temperature: 37 C): 0.725 ± 0.021; protein stability index ([4]; genetic background: doa10 deletion, temperature: 30 C): 0.0638 ± 0.032; protein stability index ([4]; genetic background: wild type, temperature: 30 C): 0.0729 ± 0.029; protein stability index ([4]; genetic background: wild type, temperature: 37 C): 0.149 ± 0.11; protein stability index [5]: 0.175 ± 0.039
KKHKKGQAQKIN	0.0853	0.605	
ARWRVGLYRGAS	0.683	0.641	
FSMRWTFRSWVN	0.272	0.515	
KKHKKGQKQKIK	0.634	0.553	
KKHKKGQKVKIN	0.225	0.615	
KKHKKGQKQEIN	0.591	0.589	

Sequence	protein stability index [1]	protein stability index [3]	other results
LVVYLSCVACINP	0.0199	0.0332	
PAKRNHLIKLLN	0.131	0.618	
CTSCCYKFRTNN	0.211	0.661	
RLIQPLPNQFLN	0.21	0.703	
LVVYLNCVACIN	0.0331	0.0265	
PSLAGSFWRVVG	0.152	0.667	
PDKRNHLNKLLN	0.126	0.579	
PDCRNHLIKLLN	0.136	0.673	
VRGAVGGWRLVGM	0.621	0.685	
PDKRNHLIGLLN	0.612	0.609	
VRGAVGGWRLVGS	0.174	0.67	
CTSCGYVFRTNN	0.196	0.698	
FSMRWLFRYWVN	0.0905	0.573	
LKQLRQKMNHQN	0.212	0.663	
KKHKKGQKQMIN	0.117	0.591	
PDKRNHLIKTLN	0.164	0.604	
PSLAASFWRVVW	0.637	0.683	
LKILRQPMNHQN	0.658	0.68	
